This is an account of results in article PMC8887749, “The interaction of dengue virus capsid protein with negatively charged interfaces drives the in vitro assembly of nucleocapsid-like particles”.

For series [1], the target named is Dengue virus capsid (C) protein, recombinant DENVC (dengue virus serotype 2) (UniProt P29990). Description: SAXS.
The target of series [2] is DENV capsid protein (DENVC) (Dengue virus serotype 2, UniProt P29990 1-100). Description: fluorescence anisotropy; FITC-DENVC 50 nM; 1:1 DENVC:oligo stoichiometry; affinity stated only as nanomolar range; 55 mM NaH2PO4, 200 mM NaCl, 5 mM EDTA, pH 7.4, 25 C. The following applies: protein: recombinant; chain copies: 2; single strand. On the technique in general: Fluorescence polarisation rises when a labelled molecule tumbles more slowly, as on binding a larger partner.
Sequence of DENV capsid protein (DENVC) (P29990 1-100): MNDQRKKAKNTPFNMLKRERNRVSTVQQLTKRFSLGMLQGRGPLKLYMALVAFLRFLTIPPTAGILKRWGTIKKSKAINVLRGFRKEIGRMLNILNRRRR

Sequence of Dengue virus capsid (C) protein, recombinant DENVC (P29990 1-100): as above

The stoichiometry N is the number of molecules, sites or subunits per partner or assembly. Turning to “Dengue virus capsid (C) protein, recombinant DENVC (from UniProt P29990 1-100) (natural protein)”, the stoichiometry N in series [1] was 2.
In the case of GGGGG (ssDNA) [5-mer ssDNA], the binding result in series [2] is given as “binds”.
Take TCCATGGTAGACAGAGGATGGGGGA (ssDNA) [25-mer ssDNA]: the binding result in series [2] is “binds”.
